The source of these data is PMC2645691.

In the assay the target is FLAG-tagged MAGI-1L (C. elegans). The assay can be described thus: co-IP; COS-7 cells cotransfected with FLAG- and GST-tagged proteins; lysis in modified RIPA (50 mM Tris-HCl pH 7.4, 125 mM NaCl, 0.25% NP-40); anti-FLAG beads; blots with anti-FLAG and anti-GST, films quantified against input.

B1: GST fused to the GLR-2 cytosolic domain (GST::GLR-2) (domain or fragment)
chain: VEFLFRKNKENREKERNRMRSSRPLKPGILASCERAKQKQLQNRRTKSEEVSTPRSTLF
Turning to B1, the percent coimmunoprecipitated was 10%.

B2: GST fused to the GLR-2 cytosolic domain with a mutated PDZ recognition motif (GST::GLR-2AAA) (domain or fragment)
chain: VEFLFRKNKENREKERNRMRSSRPLKPGILASCERAKQKQLQNRRTKSEEVSTPRSAAA
As to B2, the percent coimmunoprecipitated fell in the range of 0 to 2%.
